Common to all, as to assay: SPR, mAb 1B7 immobilised ~1000 RU
A general note: SPR reads the build-up and loss of mass on a sensor chip optically.

The target of one assay is T1, PTx-S1-220 H83A (Bordetella pertussis strain Tohama I, UniProt P04977 36-255, H83A).
T1 sequence: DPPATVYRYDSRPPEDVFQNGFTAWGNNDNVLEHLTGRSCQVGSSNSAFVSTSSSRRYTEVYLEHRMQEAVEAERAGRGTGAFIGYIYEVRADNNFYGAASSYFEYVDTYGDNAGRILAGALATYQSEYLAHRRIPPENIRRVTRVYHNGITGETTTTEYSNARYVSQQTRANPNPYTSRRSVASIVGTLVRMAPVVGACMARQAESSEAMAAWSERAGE

Another assay deals with T2, PTx-S1-220 Y166A (Bordetella pertussis strain Tohama I, UniProt P04977 36-255, Y166A).
T2 sequence: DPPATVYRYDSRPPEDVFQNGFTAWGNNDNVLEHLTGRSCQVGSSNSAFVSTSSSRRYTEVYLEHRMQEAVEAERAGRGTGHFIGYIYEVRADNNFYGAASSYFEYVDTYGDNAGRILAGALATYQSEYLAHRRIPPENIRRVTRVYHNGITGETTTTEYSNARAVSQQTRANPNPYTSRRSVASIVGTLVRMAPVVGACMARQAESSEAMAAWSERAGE

The next assay addresses T3, PTx-S1-220 N176A (Bordetella pertussis strain Tohama I, UniProt P04977 36-255).
T3 chain: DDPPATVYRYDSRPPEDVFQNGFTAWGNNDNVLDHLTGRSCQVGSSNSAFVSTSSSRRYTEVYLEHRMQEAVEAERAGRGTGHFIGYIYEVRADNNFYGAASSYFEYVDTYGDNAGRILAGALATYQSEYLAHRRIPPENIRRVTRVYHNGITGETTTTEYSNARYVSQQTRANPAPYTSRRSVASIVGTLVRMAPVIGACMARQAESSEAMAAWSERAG

A further assay addresses T4, PTx-S1-220 N150A (Bordetella pertussis strain Tohama I, UniProt P04977 36-255, N150A).
T4 sequence: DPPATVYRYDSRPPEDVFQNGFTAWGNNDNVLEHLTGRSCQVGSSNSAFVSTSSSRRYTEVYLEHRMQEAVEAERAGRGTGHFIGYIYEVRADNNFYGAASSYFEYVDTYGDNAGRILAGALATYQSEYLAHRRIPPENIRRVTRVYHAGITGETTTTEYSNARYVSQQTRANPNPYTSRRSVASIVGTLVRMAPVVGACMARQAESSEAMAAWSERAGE

The target of the next assay is T5, PTx-S1-220 T81A (Bordetella pertussis strain Tohama I, UniProt P04977 36-255, T81A).
T5 sequence: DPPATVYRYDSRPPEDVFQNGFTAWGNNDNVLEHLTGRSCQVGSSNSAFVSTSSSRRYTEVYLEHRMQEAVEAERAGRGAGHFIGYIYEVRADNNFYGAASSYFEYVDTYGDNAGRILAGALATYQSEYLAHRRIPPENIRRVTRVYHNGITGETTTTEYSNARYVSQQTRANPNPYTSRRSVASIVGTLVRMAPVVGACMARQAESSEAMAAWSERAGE

For another assay, the target named is T6, PTx-S1-220 E16A (Bordetella pertussis strain Tohama I, UniProt P04977 36-255, E16A).
T6 sequence: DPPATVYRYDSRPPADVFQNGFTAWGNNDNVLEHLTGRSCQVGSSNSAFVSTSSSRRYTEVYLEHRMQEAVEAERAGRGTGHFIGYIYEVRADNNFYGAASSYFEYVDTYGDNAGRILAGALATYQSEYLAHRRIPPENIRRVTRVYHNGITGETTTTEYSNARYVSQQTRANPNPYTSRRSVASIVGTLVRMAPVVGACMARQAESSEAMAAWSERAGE

A further assay addresses T7, PTx-S1-220 E155A (Bordetella pertussis strain Tohama I, UniProt P04977 36-255, E155A).
T7 sequence: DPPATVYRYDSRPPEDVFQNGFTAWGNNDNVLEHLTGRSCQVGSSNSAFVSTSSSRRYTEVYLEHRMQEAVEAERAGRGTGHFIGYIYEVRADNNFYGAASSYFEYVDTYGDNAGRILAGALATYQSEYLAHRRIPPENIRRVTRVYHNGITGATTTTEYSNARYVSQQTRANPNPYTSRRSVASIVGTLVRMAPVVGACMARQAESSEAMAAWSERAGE

A further assay concerns the target T8, PTx-S1-220 T159A (Bordetella pertussis strain Tohama I, UniProt P04977 36-255, T159A).
T8 sequence: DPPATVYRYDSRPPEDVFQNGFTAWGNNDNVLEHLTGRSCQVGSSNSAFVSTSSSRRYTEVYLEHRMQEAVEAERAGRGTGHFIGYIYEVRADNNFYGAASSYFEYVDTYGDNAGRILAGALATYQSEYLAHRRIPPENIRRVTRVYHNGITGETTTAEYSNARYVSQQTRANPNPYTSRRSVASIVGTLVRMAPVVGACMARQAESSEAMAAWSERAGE

The next assay concerns the target T9, PTx-S1-220 Y148A (Bordetella pertussis strain Tohama I, UniProt P04977 36-255, Y148A).
T9 sequence: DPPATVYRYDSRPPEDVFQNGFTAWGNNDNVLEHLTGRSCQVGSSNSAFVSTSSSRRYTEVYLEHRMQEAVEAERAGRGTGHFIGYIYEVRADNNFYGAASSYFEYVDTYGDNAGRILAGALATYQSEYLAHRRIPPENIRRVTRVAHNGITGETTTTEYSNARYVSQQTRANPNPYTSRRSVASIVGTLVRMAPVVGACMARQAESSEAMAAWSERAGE

The target of a further assay is T10, PTx-S1-220 T156A (Bordetella pertussis strain Tohama I, UniProt P04977 36-255, T156A).
T10 sequence: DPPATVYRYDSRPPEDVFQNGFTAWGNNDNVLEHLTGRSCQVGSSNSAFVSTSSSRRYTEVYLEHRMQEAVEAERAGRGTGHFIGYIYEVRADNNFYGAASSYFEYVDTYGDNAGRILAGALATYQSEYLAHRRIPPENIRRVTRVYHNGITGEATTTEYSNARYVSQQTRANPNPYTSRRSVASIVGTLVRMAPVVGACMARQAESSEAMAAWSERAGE

B1: monoclonal antibody 1B7 (antibody)
chain: DIQMTQSPALMSASPGEKVTMTCSASSSVSFMYWYQQKPRSSPKPWIYLTSNLPSGVPARFSGSGSGTSYSLTISSMEAEDAATYYCQQWSSHPPTFGSGTKLEIKRGGGGSGGGGSGGGGSGGGGSEVQLQQSGSELVRPGASVKLSCKASGYKFTSYWMHWVKQRPGQGLEWIGNIFPGSGSTNYDEKFNSKATLTVDTSSNTAYMQLSSLTSEDSAVYYCTRWLSGAYFDYWGQGTTLTVSSASGA
notes: also called mAb 1B7; 1B7 mAb
For orientation: koff means the rate constant with which the complex falls apart. Low readings indicate a long-lived complex, high ones a short-lived complex. Regarding B1, the dissociation rate constant (koff) with PTx-S1-220 H83A is 0.01 s⁻¹; with PTx-S1-220 Y166A, 0.0014 s⁻¹; with PTx-S1-220 N176A, 0.0011 s⁻¹; with PTx-S1-220 N150A, 0.008 s⁻¹; in the assay with PTx-S1-220 T81A it was 0.0017 s⁻¹; with PTx-S1-220 E16A, 0.0016 s⁻¹. Also, the koff is 0.0011 s⁻¹ with PTx-S1-220 E155A, 0.0014 s⁻¹ with PTx-S1-220 T159A, 0.029 s⁻¹ with PTx-S1-220 Y148A and 0.0011 s⁻¹ with PTx-S1-220 T156A.
